Laboratory results published in patent US20100291108A1 (published 2010).
One block for each binder: values may come before it.

How the values were obtained:
[1] = biological target: IREM-1Δ1 deletion construct (human); test: flow cytometry on 293 cells expressing the construct
[2] = biological target: T1, IREM-1Δ4 deletion construct (human); test: as above
T1 construct: Deletion construct of IREM-1 expressed in 293 cells
T1 chain: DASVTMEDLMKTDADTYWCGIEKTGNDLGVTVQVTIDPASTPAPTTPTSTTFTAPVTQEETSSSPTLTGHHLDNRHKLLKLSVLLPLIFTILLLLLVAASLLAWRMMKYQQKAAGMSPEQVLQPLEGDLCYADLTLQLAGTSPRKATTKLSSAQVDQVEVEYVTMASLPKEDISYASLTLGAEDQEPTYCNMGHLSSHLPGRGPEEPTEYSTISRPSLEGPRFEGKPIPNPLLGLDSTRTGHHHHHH

[3] = biological target: T2, IREM-1Δ5 deletion construct (human); test: as above
T2 construct: Deletion construct of IREM-1 expressed in 293 cells
T2 chain: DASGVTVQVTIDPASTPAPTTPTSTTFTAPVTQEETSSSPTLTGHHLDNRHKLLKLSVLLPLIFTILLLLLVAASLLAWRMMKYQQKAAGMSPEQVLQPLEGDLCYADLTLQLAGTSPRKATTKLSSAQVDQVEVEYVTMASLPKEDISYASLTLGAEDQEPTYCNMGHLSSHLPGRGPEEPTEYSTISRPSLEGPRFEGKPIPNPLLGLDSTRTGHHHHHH

[4] = biological target: T3, IREM-1Δ2 deletion construct (human); test: as above
T3 construct: Deletion construct of IREM-1 expressed in 293 cells
T3 chain: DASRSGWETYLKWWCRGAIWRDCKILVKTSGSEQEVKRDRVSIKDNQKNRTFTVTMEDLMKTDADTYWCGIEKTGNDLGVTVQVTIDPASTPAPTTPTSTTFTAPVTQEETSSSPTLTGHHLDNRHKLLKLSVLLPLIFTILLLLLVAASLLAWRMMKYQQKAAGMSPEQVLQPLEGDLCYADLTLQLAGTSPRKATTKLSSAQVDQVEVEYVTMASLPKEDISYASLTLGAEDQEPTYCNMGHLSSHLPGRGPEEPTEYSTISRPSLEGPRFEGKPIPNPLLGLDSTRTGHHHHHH

[5] = biological target: T4, IREM-1Δ6 deletion construct (human); test: as above
T4 construct: Deletion construct of IREM-1 expressed in 293 cells
T4 chain: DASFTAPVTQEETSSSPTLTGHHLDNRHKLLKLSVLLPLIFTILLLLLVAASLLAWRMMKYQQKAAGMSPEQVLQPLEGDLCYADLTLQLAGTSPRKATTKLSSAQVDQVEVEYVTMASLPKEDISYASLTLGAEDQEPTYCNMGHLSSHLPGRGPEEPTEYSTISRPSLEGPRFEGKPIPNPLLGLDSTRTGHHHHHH

[6] = biological target: T5, IREM-1Δ3 deletion construct (human); test: as above
T5 construct: Deletion construct of IREM-1 expressed in 293 cells
T5 chain: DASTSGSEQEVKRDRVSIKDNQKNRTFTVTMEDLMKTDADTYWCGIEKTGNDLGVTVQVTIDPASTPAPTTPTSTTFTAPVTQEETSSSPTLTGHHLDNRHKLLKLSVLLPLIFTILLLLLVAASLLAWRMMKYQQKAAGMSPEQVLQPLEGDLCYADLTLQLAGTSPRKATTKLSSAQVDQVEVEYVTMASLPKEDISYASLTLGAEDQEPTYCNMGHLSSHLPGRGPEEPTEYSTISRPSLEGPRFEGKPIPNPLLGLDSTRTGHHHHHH

[7] = biological target: T6, IREM-1-ECD-V5His recombinant protein (human, UniProt Q8TDQ1 20-156); test: SPR (Biacore), mAb captured on the chip, antigen in solution, 25 C
T6 construct: Produced in HEK-293 cells and purified on a Ni column; also called IREM-1 V5-6His protein; recombinant IREM-1 protein containing the complete extracellular domain; not shown: C-terminal V5-His tag

[8] = biological target: T6, IREM-1-ECD-V5His recombinant protein; test: SPR (Biacore), mAb captured on the chip, antigen in solution, 25 C; KD = kd/ka
Protocol: Kinetic rate constants (kₐ and kd) were determined using surface plasmon resonance and affinities (KD) were then calculated from the rate constants (kd/kₐ). Surface plasmon resonance was carried out on a BlAcore system (Biacore International AB, Uppsala, Sweden). […] Each of 5 concentrations was tested twice except the highest concentration which was tested 5 times in total, two times with a short dissociation of 300 seconds followed by three times with a dissociation of 60 minutes. The data sets from the long dissociation experiments were globally fit with the shorter association experiments to determine binding constants for the interactions. The analysis was carried out in HBS, pH 7.4 buffer at 25° C.

[9] = biological target: human IREM-1 (full-length, on cells) (human, UniProt Q8TDQ1 20-290); test: cell-based or functional assay

- binding result [1]: binds
- binding result [2]: no binding
- binding result [3]: no binding
- binding result [4]: no binding
- binding result [5]: no binding
- binding result [6]: no binding
- koff [7]: 0.00066 s⁻¹
- kon [7]: 282000 M⁻¹ s⁻¹
- Kd [8]: 2.3 nM
B1: chimeric anti-IREM-1 monoclonal antibody B11 (antibody, human IgG1, V domains shown)
VH: QIQLVQSGPELEKPGETVKISCKASGYTFTNYPMHWVKQAPGKGLKWMGWINTYSGVPTYADDFKGRFAFSLETSASTAYLQINNLKNEDMATYFCARMDYYSNGFNYWGQGTTLTVSS
VL: DVLMTQTPLSLPVSLGDQASISCRSSQSIVHSNGNTYLEWYLQKPGQSPKLLIYKVSNRFSGVPDRFSGSGSGTDFTLKISRVEAEDLGVYYCFQGSHVPWTFGGGTKLEIKR
notes: No cleavage site is stated; also called mAb B11; VL2VH2

- binding result [1]: binds
- binding result [2]: no binding
- binding result [3]: no binding
- binding result [4]: no binding
- binding result [5]: no binding
- binding result [6]: no binding
- CDC EC50 on AML cell line HL-60 [9]: 1970 to 3840 ng/mL
- CDC EC50 on stage M1 AML patient sample [9]: 0.0062 ng/mL
- kon [7]: 228000 M⁻¹ s⁻¹
B2: chimeric anti-IREM-1 monoclonal antibody 871.1 (antibody, human IgG1, V domains shown)
VH: EVKLVESGGGLVQPGGSLSLSCAASGFTFTDYYMSWVRQPPGMAPEWLGFIRNKANGYTTEYSASVKGRFTISRDDSQSILYLQMNALRAEDSATYYCAREDYGSSWGYYAMDCWGQGTSVTVSS
VL: DIVMTQSQKFMSTSVGDRVSVTCKASQNVDTNVAWYQQKPGQSPKALLYSASYRHSGVPDRFTGSGSETDFTLTITNVQSEDLAEYFCQQYNSFPLTFGSGTKLEIRR
notes: The CDC assays use an IgG2b isotype control, so the murine form may have been used there; No cleavage site is stated; also called mAb 871.1; VL1VH1
- CDC (complement-dependent cytotoxicity) EC50 on 293 cells expressing IREM-1 [9]: ~10 ng/mL

- binding result [1]: binds
- binding result [2]: no binding
- binding result [3]: no binding
- binding result [4]: no binding
- binding result [5]: no binding
- binding result [6]: no binding
- koff [7]: 0.00072 s⁻¹
- kon [7]: 255000 M⁻¹ s⁻¹
- Kd [8]: 2.8 nM
B3: chimeric anti-IREM-1 monoclonal antibody D12 (antibody, human IgG1, V domains shown)
VH: EIQLQQSGAELVRPGTSVKVSCKASGYAFTNYLIEWVKQRPGQGLEWIGVINPGSGGSYYNEKFKGKTTLTADKSSSTAYMQLSSLAFDDSAVYFCARSESNYSYYYAMDYWGQGTSVIVSS
VL: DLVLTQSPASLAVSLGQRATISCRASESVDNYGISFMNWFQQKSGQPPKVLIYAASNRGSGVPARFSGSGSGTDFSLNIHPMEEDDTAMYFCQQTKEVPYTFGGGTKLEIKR
notes: No cleavage site is stated; also called mAb D12; clone #D12
